Source: article PMC8603391 (European biophysics journal : EBJ, 2015)

How the values were obtained:
[1] = molecular target: T1, Myosin 16 ankyrin domain (My16Ank), GST tag cleaved (Rattus norvegicus, UniProt Q9ERC1-1 1-402); experiment: SPR
T1 sequence (looked up): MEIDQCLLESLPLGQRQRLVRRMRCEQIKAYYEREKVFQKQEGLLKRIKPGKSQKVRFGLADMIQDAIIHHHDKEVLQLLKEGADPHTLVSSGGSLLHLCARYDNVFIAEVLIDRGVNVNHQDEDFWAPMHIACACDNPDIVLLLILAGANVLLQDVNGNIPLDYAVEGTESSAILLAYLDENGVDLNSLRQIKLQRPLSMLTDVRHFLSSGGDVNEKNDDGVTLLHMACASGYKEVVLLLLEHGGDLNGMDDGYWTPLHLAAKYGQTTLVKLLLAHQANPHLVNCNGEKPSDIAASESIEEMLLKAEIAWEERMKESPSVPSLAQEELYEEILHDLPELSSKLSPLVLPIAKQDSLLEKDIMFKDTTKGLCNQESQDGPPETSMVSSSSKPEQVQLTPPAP

[2] = molecular target: T2, GST-My16Ank (uncleaved glutathione S-transferase fusion of the myosin 16 ankyrin domain) (Rattus norvegicus, UniProt Q9ERC1-1 1-402); experiment: SPR
T2 sequence (looked up): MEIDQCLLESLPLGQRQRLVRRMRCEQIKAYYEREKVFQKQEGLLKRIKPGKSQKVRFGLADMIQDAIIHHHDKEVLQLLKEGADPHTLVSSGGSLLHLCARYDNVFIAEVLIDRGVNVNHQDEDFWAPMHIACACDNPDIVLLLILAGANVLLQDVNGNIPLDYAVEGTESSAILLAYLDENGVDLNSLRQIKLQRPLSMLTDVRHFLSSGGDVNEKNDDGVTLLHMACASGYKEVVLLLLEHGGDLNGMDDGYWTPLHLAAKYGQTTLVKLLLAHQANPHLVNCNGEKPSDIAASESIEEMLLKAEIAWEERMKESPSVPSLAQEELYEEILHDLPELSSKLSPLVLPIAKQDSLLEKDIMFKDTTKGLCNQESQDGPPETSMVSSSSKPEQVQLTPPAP

Ka [1]: 1.65e+06 M⁻¹
Ka [2]: 3.04e+06 M⁻¹
Kd [2]: 0.329 µM
koff [2]: 0.000473 s⁻¹
kon [2]: 1440 M⁻¹ s⁻¹
B1: recombinant His-tagged PP1cδ (protein phosphatase-1 catalytic subunit, δ isoform) (enzyme, UniProt P62140 1-327, looked up)
chain: MADGELNVDSLITRLLEVRGCRPGKIVQMTEAEVRGLCIKSREIFLSQPILLELEAPLKICGDIHGQYTDLLRLFEYGGFPPEANYLFLGDYVDRGKQSLETICLLLAYKIKYPENFFLLRGNHECASINRIYGFYDECKRRFNIKLWKTFTDCFNCLPIAAIVDEKIFCCHGGLSPDLQSMEQIRRIMRPTDVPDTGLLCDLLWSDPDKDVQGWGENDRGVSFTFGADVVSKFLNRHDLDLICRAHQVVEDGYEFFAKRQLVTLFSAPNYCGEFDNAGGMMSVDETLMCSFQILKPSEKKAKYQYGGLNSGRPVTPPRTANPPKKR
